The target in series [1] is rat liver insulin receptor purified by wheat germ lectin affinity chromatography (rat) (UniProt P15127). In words: cell-based or functional assay.
In series [2] the test system is biotinylated hIRS-1-p30 (domain D516-P777 of human IRS-1).
biotinylated hIRS-1-p30 (domain D516-P777 of human IRS-1), sequence (chain, as listed by the source): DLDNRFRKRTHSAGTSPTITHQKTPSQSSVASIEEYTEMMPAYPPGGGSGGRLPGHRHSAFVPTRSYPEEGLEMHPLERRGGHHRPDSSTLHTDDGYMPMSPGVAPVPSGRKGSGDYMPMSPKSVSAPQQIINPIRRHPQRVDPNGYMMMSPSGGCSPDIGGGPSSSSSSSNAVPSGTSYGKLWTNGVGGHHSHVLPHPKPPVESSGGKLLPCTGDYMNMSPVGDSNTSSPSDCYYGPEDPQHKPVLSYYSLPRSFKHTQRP

rat liver insulin receptor purified by wheat germ lectin affinity chromatography (rat), sequence (P15127 27-1383 limits assumed, form in doubt): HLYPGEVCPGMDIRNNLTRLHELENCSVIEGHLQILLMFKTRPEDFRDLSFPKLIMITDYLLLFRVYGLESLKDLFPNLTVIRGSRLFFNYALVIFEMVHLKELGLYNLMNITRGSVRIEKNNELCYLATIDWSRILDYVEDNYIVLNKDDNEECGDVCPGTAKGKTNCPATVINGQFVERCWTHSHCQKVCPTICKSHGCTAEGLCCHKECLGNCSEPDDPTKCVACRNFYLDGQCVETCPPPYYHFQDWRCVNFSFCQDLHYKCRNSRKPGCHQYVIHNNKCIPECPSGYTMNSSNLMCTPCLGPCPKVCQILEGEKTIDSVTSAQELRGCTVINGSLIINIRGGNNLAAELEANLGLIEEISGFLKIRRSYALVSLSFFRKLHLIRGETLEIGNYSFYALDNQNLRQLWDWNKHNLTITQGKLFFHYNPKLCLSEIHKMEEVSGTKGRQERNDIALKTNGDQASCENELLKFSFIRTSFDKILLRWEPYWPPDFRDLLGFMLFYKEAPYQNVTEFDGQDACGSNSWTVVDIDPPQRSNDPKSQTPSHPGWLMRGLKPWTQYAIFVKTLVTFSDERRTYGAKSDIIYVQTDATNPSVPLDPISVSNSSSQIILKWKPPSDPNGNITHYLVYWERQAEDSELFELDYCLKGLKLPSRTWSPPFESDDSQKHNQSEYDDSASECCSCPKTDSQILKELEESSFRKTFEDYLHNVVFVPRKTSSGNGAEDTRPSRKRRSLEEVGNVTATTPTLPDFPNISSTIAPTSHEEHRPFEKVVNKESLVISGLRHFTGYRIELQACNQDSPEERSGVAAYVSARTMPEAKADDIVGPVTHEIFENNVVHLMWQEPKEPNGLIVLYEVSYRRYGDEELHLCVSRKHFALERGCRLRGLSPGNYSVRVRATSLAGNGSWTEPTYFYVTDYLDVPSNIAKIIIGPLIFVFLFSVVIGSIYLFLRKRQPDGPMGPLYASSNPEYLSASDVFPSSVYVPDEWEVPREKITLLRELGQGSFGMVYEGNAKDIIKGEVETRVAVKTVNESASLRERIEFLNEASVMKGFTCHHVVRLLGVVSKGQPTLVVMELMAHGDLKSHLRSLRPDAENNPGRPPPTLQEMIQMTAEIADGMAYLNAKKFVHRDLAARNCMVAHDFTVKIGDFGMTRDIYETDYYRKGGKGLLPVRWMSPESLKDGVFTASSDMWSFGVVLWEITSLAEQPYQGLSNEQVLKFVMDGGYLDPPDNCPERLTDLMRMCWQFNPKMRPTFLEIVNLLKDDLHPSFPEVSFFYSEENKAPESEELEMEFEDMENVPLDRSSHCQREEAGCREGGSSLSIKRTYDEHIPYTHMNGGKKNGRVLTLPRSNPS

In series [1], “human insulin (from UniProt P01308 25-54; P01308 90-110) (ligand)” returned an ALPHAScreen readout of tyrosine phosphorylation of 85 nM biotinylated IRS fragment by the insulin-stimulated receptor of 10 nM. As for protein kinase C (serine kinase PKCδ), the “phosphorylation of the biotinylated IRS-1 fragment (ALPHAScreen, p-Ser antibody)” value in series [2] is reported as “can be phosphorylated in the biotinylated state by the serine kinase PKCδ”.

The values are drawn from patent US20080020399A1.
